Assay results taken from patent US20220144922A1 (Adimab, published 2022).

B1: ADI-15614 (antibody, V domains shown)
VH: EVQLLESGGGLVKPGGSLRLSCAASGFTISGYNMFWVRQPPGKGLEWVSSITAGSSYLNYADSVKGRFIVSRDNAKNSLYLQMNSLRAEDTAVYFCARAPLLPAMMDLWGQGTTVTVSS
VL: QSVLTQPPSVSGAPGQRVTISCTGSSSNIGAGYDVHWYQQLPGTAPKLLIYTNNNRPSGVPDRFSGSKSGTSASLAITGLQAEDEADYYCQSYDRSLNGYVFGTGTKLTVL
notes: IgG
B2: ADI-15623 (antibody, V domains shown)
VH: EVQLLESGGGLVKPGGSLRLSCAASGFTIGGYNMFWVRQPPGKGLEWVSSITAGSSYLNYADSVKGRFIVSRDNAKNSLYLQMNSLRAEDTAVYFCARAPLLPAMMDLWGQGTTVTVSS
VL: QSVVTQPPSVSGAPGQRVTISCTGSSSNIGAGYDVHWYQQLPGTAPKLLIYTNNNRPSGVPDRFSGSKSGTSASLAITGLQAEDEADYYCQSYDRSLNGYVFGTGTQLTVL
notes: IgG; also called Antibody Number 188

Legend:
[1] = target: T1, prefusion-stabilized RSV F ectodomain (DS-Cav1), subtype B (respiratory syncytial virus subtype B); experiment: BLI, IgG on sensor
T1 construct: extracellular domain; also called Prefusion subtype B

[2] = target: T2, RSV F protein of subtype A strain A2, on virus (respiratory syncytial virus subtype A …, UniProt P03420 26-574); experiment: cell-based or functional assay
[3] = target: RSV F protein of subtype B strain 18537, on virus (respiratory syncytial virus subtype B …, UniProt P13843 26-574); experiment: cell-based or functional assay
[4] = target: T2, RSV F protein of subtype A strain A2, …; experiment: cell-based or functional assay; remark: listed apart in the source
[5] = target: HMPV F protein (NL/1/00, A1 sublineage), on virus (human metapneumovirus); experiment: cell-based or functional assay

Binder	Kd [1] [nM]	Neut IC50 (ug/ml) subtype A [2] [µg/mL]	Neut IC50 (ug/ml) subtype B [3] [µg/mL]	RSV-A2 IC50 [4] [mg/L]	HMPV-A1 IC50 [5] [mg/L]
B1	0.466	0.027	0.059	0.03	0.22
B2	0.435	0.054	0.108	0.05	0.37
